Biological target: T1, Myoglobin from Horse Heart (Sigma M-9267) (horse), P68082
T1 chain: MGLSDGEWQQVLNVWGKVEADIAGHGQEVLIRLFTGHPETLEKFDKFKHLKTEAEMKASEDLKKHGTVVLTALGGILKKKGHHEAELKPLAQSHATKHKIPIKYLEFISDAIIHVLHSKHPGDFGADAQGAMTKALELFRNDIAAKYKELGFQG
Experiment: SDS-PAGE of the methanol precipitate
Details: remark: other sources report otherwise

- stoichiometry N: 3
B1: Myoglobin from Horse Heart (Sigma M-9267), P68082 1-154 (natural protein)
chain: MGLSDGEWQQVLNVWGKVEADIAGHGQEVLIRLFTGHPETLEKFDKFKHLKTEAEMKASEDLKKHGTVVLTALGGILKKKGHHEAELKPLAQSHATKHKIPIKYLEFISDAIIHVLHSKHPGDFGADAQGAMTKALELFRNDIAAKYKELGFQG
